Measured values reported in paper PMC10694767 (Cell Reports Medicine, 2023).

T1: virion-encoded gp42 expressed on the cell surface of EBV-positive CNE2 cells (Epstein-Barr virus (HHV-4); strain …)
T1 chain: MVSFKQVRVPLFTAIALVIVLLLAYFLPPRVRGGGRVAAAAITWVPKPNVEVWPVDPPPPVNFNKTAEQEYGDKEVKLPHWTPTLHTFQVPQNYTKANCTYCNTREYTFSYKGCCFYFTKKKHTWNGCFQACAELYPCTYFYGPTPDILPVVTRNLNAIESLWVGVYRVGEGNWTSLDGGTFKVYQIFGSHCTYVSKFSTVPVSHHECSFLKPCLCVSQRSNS

B1: 3E8 (anti-gp42 rabbit mAb, constant regions replaced with human IgG1) (antibody, V domains shown)
VH: QPVKESGGRLVTPGTPLTLTCTASGFSLSSYWMSWVRQARGKGLEWIGTATAGGSAWYASWAKGRFTISRTSTTVELRMTSLTTEDTATYFCARDPPGHSGLWGRGTLVTVSS
VL: DLVMTQTPASVEAAVGGTVTIKCQASESIGNALAWYQQKPGQPPKLLIYDTSNLASGVSSRFRGSGSGTQFTLTISDLECADAATYYCQTYYYSGVTTTYQAFGGGTEVDVK
B2: 3E8 Fab (Fab, V domains shown)
VH: QPVKESGGRLVTPGTPLTLTCTASGFSLSSYWMSWVRQARGKGLEWIGTATAGGSAWYASWAKGRFTISRTSTTVELRMTSLTTEDTATYFCARDPPGHSGLWGRGTLVTVSS
VL: DLVMTQTPASVEAAVGGTVTIKCQASESIGNALAWYQQKPGQPPKLLIYDTSNLASGVSSRFRGSGSGTQFTLTISDLECADAATYYCQTYYYSGVTTTYQAFGGGTEVDVK
B3: 6H2 (anti-gHgL mAb, constant regions replaced with human IgG1) (antibody, V domains shown)
VH: EVKLLESGGGLVQPGGSLKLSCAASGFDFSRYWMTWVRQAPGQGLEWIGEINPDSSTINYTPSLKDKFIISRDNAKNTLYLQVSKLRSEDTALYYCARSPYYYGSSYDVWGAGTAVTVSS
VL: DIVMSQSPSSLAVSAGEKVTMNCKSSQSLLNSRTRKNYLAWYQQKPGQSPKLLIYWASTRESGVPDRFTGSGSGTDFTLTISSVQAEDLAFYYCKQSYNLPTFGGGTKLEIK
B4: 6H2 Fab (Fab, V domains shown)
VH: EVKLLESGGGLVQPGGSLKLSCAASGFDFSRYWMTWVRQAPGQGLEWIGEINPDSSTINYTPSLKDKFIISRDNAKNTLYLQVSKLRSEDTALYYCARSPYYYGSSYDVWGAGTAVTVSS
VL: DIVMSQSPSSLAVSAGEKVTMNCKSSQSLLNSRTRKNYLAWYQQKPGQSPKLLIYWASTRESGVPDRFTGSGSGTDFTLTISSVQAEDLAFYYCKQSYNLPTFGGGTKLEIK
B5: 5E3 (anti-gp42 rabbit mAb, constant regions replaced with human IgG1) (antibody, V domains shown)
VH: QPVEESGGRLVTPGTPLTLTCTVSGFSLSTYAMSWVRQAPGKGLEWIGTISASDTTYFANWTKGRFTISKASTTVDLKITSPTTEDTATFFCARFSAYESNRDYFDTFDPWGPGTLVTVSS
VL: DVVMTQTPSPVSAAVGGTVTIKCQASQNIYRDLAWYQQNPGQPPKLLIYGASNLASGVPSRFSGSGSGTEYILTISDLECADAATYYCQCSAYGSGYAAHAFGGGTKVDIK
B6: 5E3 Fab (Fab, V domains shown)
VH: QPVEESGGRLVTPGTPLTLTCTVSGFSLSTYAMSWVRQAPGKGLEWIGTISASDTTYFANWTKGRFTISKASTTVDLKITSPTTEDTATFFCARFSAYESNRDYFDTFDPWGPGTLVTVSS
VL: DVVMTQTPSPVSAAVGGTVTIKCQASQNIYRDLAWYQQNPGQPPKLLIYGASNLASGVPSRFSGSGSGTEYILTISDLECADAATYYCQCSAYGSGYAAHAFGGGTKVDIK
B7: 10E4 (anti-gHgL rabbit mAb, constant regions replaced with human IgG1) (antibody, V domains shown)
VH: QQVKESGGRLVTPGTPLTLTCTASGFSLSTYWMSWVRQAPGKGLEYIGVIGGSGSTYYASWAKGRFTISKTSTTVDLKITSPTTEDTATYFCARDSGAGVRFRFWGPGTLVTVSS
VL: DLVMTQTPASVEAGVGGTVTINCQASENIGSRLAWYQQKPGQPPKLLIYRASTLESGVPSRFKGSGSGTEFTLTISDLECADAATYYCQCTYGVSITINYGNDFGGGTEVVVK
B8: 10E4 Fab (Fab, V domains shown)
VH: QQVKESGGRLVTPGTPLTLTCTASGFSLSTYWMSWVRQAPGKGLEYIGVIGGSGSTYYASWAKGRFTISKTSTTVDLKITSPTTEDTATYFCARDSGAGVRFRFWGPGTLVTVSS
VL: DLVMTQTPASVEAGVGGTVTINCQASENIGSRLAWYQQKPGQPPKLLIYRASTLESGVPSRFKGSGSGTEFTLTISDLECADAATYYCQCTYGVSITINYGNDFGGGTEVVVK

Legend:
[1] = target: T1, virion-encoded gp42 expressed on the …; test: flow cytometry on cells
[2] = target: T2, gHgL-gp42 complex (soluble gHgL with soluble gp42) (Epstein-Barr virus (HHV-4), strain M81, strain); test: SPR
[3] = target: T3, soluble EBV gp42 (ectodomain, aa 34-223) (Epstein-Barr virus, strain M81, UniProt P03205); test: SPR
[4] = target: T2, gHgL-gp42 complex (soluble gHgL with …); test: SEC
[5] = target: virion-encoded gHgL expressed on the cell surface of EBV-positive CNE2 cells (Epstein-Barr virus (HHV-4), strain in …); test: flow cytometry on cells
[6] = target: T3, soluble EBV gp42 (ectodomain, aa 34-223); test: cell-based or functional assay
[7] = target: T3, soluble EBV gp42 (ectodomain, aa 34-223); test: cryo-EM structure

| Binder | binding result [2] | binding result [4] | further results |
| --- | --- | --- | --- |
| B1 | binds | – | binding result [1]: binds; Kd [3]: 0.42 nM |
| B2 | – | binds | – |
| B3 | binds | – | binding result [5]: binds |
| B4 | – | binds | – |
| B5 | binds | – | binding result [1]: binds; IC50 of neutralisation of EBV infection of Akata B cells; blocks gp42:HLA-II [6]: 0.2 µg/mL; Kd [3]: 0.39 nM |
| B6 | – | binds | binding result [7]: binds |
| B7 | binds | – | binding result [5]: binds |
| B8 | – | binds | – |
